According to paper PMC3785238 (Cell, 2013):
Non-standard residues stand in square brackets, D forms with d. No end group written: not given here. pT = C[C@@H](OP(=O)(O)O)[C@H](N)C(=O)O; pS = N[C@@H](COP(=O)(O)O)C(=O)O

B1: mGluR5 peptide spanning the Homer/Pin1 binding site, bacterially expressed, phosphorylated at T1123 and S1126 (peptide)
chain: KELVAL[pT]PP[pS]PFRD

Experiments:
[1] = biological target: Homer1a, full length, recombinant; experiment: ITC + NMR titration
[2] = biological target: Homer1a, full length, recombinant; experiment: ITC
[3] = biological target: T1, Homer1c, full-length, recombinant (UniProt Q9Z214 1-366); experiment: ITC
T1 sequence (looked up): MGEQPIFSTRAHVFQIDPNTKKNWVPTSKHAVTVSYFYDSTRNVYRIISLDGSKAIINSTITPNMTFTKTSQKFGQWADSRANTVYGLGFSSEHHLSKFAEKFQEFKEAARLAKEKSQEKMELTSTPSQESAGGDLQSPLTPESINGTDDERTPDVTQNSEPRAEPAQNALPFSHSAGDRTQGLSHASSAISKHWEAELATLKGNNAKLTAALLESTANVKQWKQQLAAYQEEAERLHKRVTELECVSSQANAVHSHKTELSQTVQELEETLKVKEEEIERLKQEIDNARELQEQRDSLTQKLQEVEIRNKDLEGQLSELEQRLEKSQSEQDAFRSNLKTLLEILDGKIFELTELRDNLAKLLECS

[4] = biological target: B1

Row | Binder | Kd, calc cis [1] [nM] | Kd, calc trans [1] [nM] | Kd [2] [nM] | Kd [3] [nM] | Kd [4] [nM]
1 | B1 | 160 | 760 | 470 ± 100 | – | –
2 | KELVALTPP[pS]PFRD [mGluR5 peptide spanning the Homer/Pin1 binding site, bacterially expressed, phosphorylated at S1126] | 670 | 2190 | 1560 ± 160 | 1910 ± 190 | –
3 | EKLPPGWEKRMSRSSGRVYYFNHITNASQWERPSG (domain or fragment, UniProt Q13526 5-39, looked up) [WW domain of Pin1] | – | – | – | – | 10700 ± 200
